Results as given in PMC12416549 (2024).
Where a chain is given by its changes, count along the chain named. Names and notes keep the numbering of the source.

Biological target: T1, TNFR1 (Homo sapiens, UniProt P19438)
T1 chain: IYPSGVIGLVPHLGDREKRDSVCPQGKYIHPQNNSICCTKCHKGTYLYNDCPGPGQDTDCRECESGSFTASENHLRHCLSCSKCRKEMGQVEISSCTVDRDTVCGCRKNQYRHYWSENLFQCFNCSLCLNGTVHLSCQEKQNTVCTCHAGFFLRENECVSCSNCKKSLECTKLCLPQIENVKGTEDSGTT
Assay: yeast display SC50

B1: A23D (designed binder)
chain: MTLQELLREEALRRAEAEAFRYDLELLAEKFPEQKEYLLDLAEEIESQIRSLSGVDVEDVRKFLDKEWAWVKELLAEHPAELAEVEAARAARLAELRAEVEAKVAA
B1 was tested, and the “apparent Kd (screen)” value was 2.25 nM.

B2: A102E (designed binder)
chain: B1 chain with D23A, A102E
In the case of B2, the “apparent Kd (screen)” value is reported as 0.49 nM.

B3: D59Q (designed binder)
chain: B1 chain with D23A, D59Q
For B3, the “apparent Kd (screen)” value was 0.869 nM.

B4: A94P (designed binder)
chain: B1 chain with D23A, A94P
In the case of B4, the “apparent Kd (screen)” value is reported as 0.956 nM.

B5: E73S (designed binder)
chain: B1 chain with D23A, E73S
B5 was tested, and the “apparent Kd (screen)” value was 0.539 nM.

B6: D56I (designed binder)
chain: B1 chain with D23A, D56I
With B6 the “apparent Kd (screen)” value was 2.73 nM.

B7: G54E (designed binder)
chain: B1 chain with D23A, G54E
In the case of B7, the “apparent Kd (screen)” value is reported as 26.9 nM.

B8: L7T (designed binder)
chain: B1 chain with L7T, D23A
With B8 the “apparent Kd (screen)” value was 18.3 nM.

B9: A90C (designed binder)
chain: B1 chain with D23A, A90C
In the case of B9, the “apparent Kd (screen)” value is reported as 0.718 nM.

B10: V60M (designed binder)
chain: B1 chain with D23A, V60M
B10 was tested, and the “apparent Kd (screen)” value was 0.49 nM.

B11: R8I (designed binder)
chain: B1 chain with R8I, D23A
B11 was tested, and the “apparent Kd (screen)” value was 0.593 nM.

B12: E58G (designed binder)
chain: B1 chain with D23A, E58G
B12 was tested, and the “apparent Kd (screen)” value was 0.49 nM.

B13: H78L (designed binder)
chain: B1 chain with D23A, H78L
B13 was tested, and the “apparent Kd (screen)” value was 1.86 nM.

B14: A83I (designed binder)
chain: B1 chain with D23A, A83I
In the case of B14, the “apparent Kd (screen)” value is reported as 0.869 nM.

B15: A87N (designed binder)
chain: B1 chain with D23A, A87N
With B15 the “apparent Kd (screen)” value was 0.593 nM.

B16: A90D (designed binder)
chain: B1 chain with D23A, A90D
B16 was tested, and the “apparent Kd (screen)” value was 0.446 nM.

B17: F63N (designed binder)
chain: B1 chain with D23A, F63N
B17 was tested, and the “apparent Kd (screen)” value was 2.05 nM.

B18: A98C (designed binder)
chain: B1 chain with D23A, A98C
B18 was tested, and the “apparent Kd (screen)” value was 0.49 nM.

B19: W70S (designed binder)
chain: B1 chain with D23A, W70S
In the case of B19, the “apparent Kd (screen)” value is reported as 12.5 nM.

B20: E86T (designed binder)
chain: B1 chain with D23A, E86T
B20 was tested, and the “apparent Kd (screen)” value was 0.718 nM.

B21: L96W (designed binder)
chain: B1 chain with D23A, L96W
B21 was tested, and the “apparent Kd (screen)” value was 0.79 nM.

B22: V55R (designed binder)
chain: B1 chain with D23A, V55R
In the case of B22, the “apparent Kd (screen)” value is reported as 2.48 nM.

B23: L12Y (designed binder)
chain: B1 chain with L12Y, D23A
With B23 the “apparent Kd (screen)” value was 0.539 nM.

B24: R97T (designed binder)
chain: B1 chain with D23A, R97T
For B24, the “apparent Kd (screen)” value was 0.539 nM.

B25: M1W (designed binder)
chain: B1 chain with M1W, D23A
With B25 the “apparent Kd (screen)” value was 0.653 nM.

B26: L52M (designed binder)
chain: B1 chain with D23A, L52M
B26 was tested, and the “apparent Kd (screen)” value was 15.2 nM.

B27: V57T (designed binder)
chain: B1 chain with D23A, V57T
With B27 the “apparent Kd (screen)” value was 1.05 nM.

B28: K35E (designed binder)
chain: B1 chain with D23A, K35E
B28 was tested, and the “apparent Kd (screen)” value was 1.16 nM.

B29: K62G (designed binder)
chain: B1 chain with D23A, K62G
For B29, the “apparent Kd (screen)” value was 0.869 nM.

B30: A76D (designed binder)
chain: B1 chain with D23A, A76D
In the case of B30, the “apparent Kd (screen)” value is reported as 0.446 nM.

B31: L93G (designed binder)
chain: B1 chain with D23A, L93G
In the case of B31, the “apparent Kd (screen)” value is reported as 1.4 nM.

B32: A76Y (designed binder)
chain: B1 chain with D23A, A76Y
In the case of B32, the “apparent Kd (screen)” value is reported as 0.539 nM.

B33: A105C (designed binder)
chain: B1 chain with D23A, A105C
For B33, the “apparent Kd (screen)” value was 0.653 nM.

B34: E86K (designed binder)
chain: B1 chain with D23A, E86K
In the case of B34, the “apparent Kd (screen)” value is reported as 1.27 nM.

B35: A88V (designed binder)
chain: B1 chain with D23A, A88V
With B35 the “apparent Kd (screen)” value was 0.956 nM.

B36: D65T (designed binder)
chain: B1 chain with D23A, D65T
For B36, the “apparent Kd (screen)” value was 0.593 nM.

B37: L12W (designed binder)
chain: B1 chain with L12W, D23A
For B37, the “apparent Kd (screen)” value was 0.593 nM.

B38: V85S (designed binder)
chain: B1 chain with D23A, V85S
B38 was tested, and the “apparent Kd (screen)” value was 0.869 nM.

B39: L39T (designed binder)
chain: B1 chain with D23A, L39T
With B39 the “apparent Kd (screen)” value was 2.05 nM.

B40: E29C (designed binder)
chain: B1 chain with D23A, E29C
For B40, the “apparent Kd (screen)” value was 0.539 nM.

B41: A91H (designed binder)
chain: B1 chain with D23A, A91H
For B41, the “apparent Kd (screen)” value was 0.593 nM.

B42: F63I (designed binder)
chain: B1 chain with D23A, F63I
B42 was tested, and the “apparent Kd (screen)” value was 1.54 nM.

B43: A91N (designed binder)
chain: B1 chain with D23A, A91N
In the case of B43, the “apparent Kd (screen)” value is reported as 0.593 nM.

B44: V85N (designed binder)
chain: B1 chain with D23A, V85N
In the case of B44, the “apparent Kd (screen)” value is reported as 0.653 nM.

B45: L3W (designed binder)
chain: B1 chain with L3W, D23A
B45 was tested, and the “apparent Kd (screen)” value was 2.25 nM.

B46: A28L (designed binder)
chain: B1 chain with D23A, A28L
For B46, the “apparent Kd (screen)” value was 20.2 nM.

B47: A17K (designed binder)
chain: B1 chain with A17K, D23A
With B47 the “apparent Kd (screen)” value was 1.16 nM.

B48: A11C (designed binder)
chain: B1 chain with A11C, D23A
With B48 the “apparent Kd (screen)” value was 0.405 nM.

B49: E9M (designed binder)
chain: B1 chain with E9M, D23A
B49 was tested, and the “apparent Kd (screen)” value was 0.653 nM.

B50: I45P (designed binder)
chain: B1 chain with D23A, I45P
With B50 the “apparent Kd (screen)” value was 0.229 nM.

B51: S47K (designed binder)
chain: B1 chain with D23A, S47K
With B51 the “apparent Kd (screen)” value was 0.653 nM.

B52: L24C (designed binder)
chain: B1 chain with D23A, L24C
In the case of B52, the “apparent Kd (screen)” value is reported as 0.593 nM.

B53: L64N (designed binder)
chain: B1 chain with D23A, L64N
In the case of B53, the “apparent Kd (screen)” value is reported as 0.593 nM.

B54: Q48N (designed binder)
chain: B1 chain with D23A, Q48N
B54 was tested, and the “apparent Kd (screen)” value was 0.49 nM.

B55: L74S (designed binder)
chain: B1 chain with D23A, L74S
For B55, the “apparent Kd (screen)” value was 2.25 nM.

B56: L27K (designed binder)
chain: B1 chain with D23A, L27K
B56 was tested, and the “apparent Kd (screen)” value was 0.49 nM.

B57: A91F (designed binder)
chain: B1 chain with D23A, A91F
B57 was tested, and the “apparent Kd (screen)” value was 0.49 nM.

B58: K103Y (designed binder)
chain: B1 chain with D23A, K103Y
For B58, the “apparent Kd (screen)” value was 0.869 nM.

B59: L52F (designed binder)
chain: B1 chain with D23A, L52F
With B59 the “apparent Kd (screen)” value was 1.69 nM.
